Results reported in publication PMC2190830.

The substances below were run against human high affinity Fc gamma receptor, Fc gamma RI (human) (UniProt P12314) (assay: enzymatic cell-binding assay).
Sequence of UniProt P12314 (P12314 16-374): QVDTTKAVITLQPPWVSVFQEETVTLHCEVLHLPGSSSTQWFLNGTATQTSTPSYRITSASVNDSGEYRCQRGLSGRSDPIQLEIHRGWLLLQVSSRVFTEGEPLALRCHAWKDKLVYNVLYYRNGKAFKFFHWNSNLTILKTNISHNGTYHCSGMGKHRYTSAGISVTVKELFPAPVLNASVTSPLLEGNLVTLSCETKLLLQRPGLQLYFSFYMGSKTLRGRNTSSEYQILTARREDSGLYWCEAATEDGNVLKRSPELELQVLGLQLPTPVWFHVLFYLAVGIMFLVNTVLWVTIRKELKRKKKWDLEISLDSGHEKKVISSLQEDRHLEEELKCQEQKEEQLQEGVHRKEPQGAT

| Substance | Ka | fold reduction in binding activity relative to IgG1 and IgG3 |
| --- | --- | --- |
| CH1-deleted chimeric anti-dansyl IgG3 (IgG3 ΔCH1) (antibody) | 2e+08 M⁻¹ | – |
| chimeric anti-dansyl IgG3 (murine variable regions, human IgG3 constant region, human kappa light chain) (antibody) | 1.2e+09 M⁻¹ | – |
| chimeric anti-dansyl IgG3 bearing a hinge encoded by the first (unique) gamma 3 hinge exon (IgG3h1) (antibody) | 2.2e+08 M⁻¹ | – |
| chimeric anti-dansyl IgG3(Ser[331]) (antibody) | 3.1e+08 M⁻¹ | – |
| chimeric anti-dansyl IgG4 (murine variable regions, human IgG4 constant region, human kappa light chain) (antibody) | – | 10 fold |
| chimeric anti-dansyl IgG4(Leu[234]) (antibody) | 3.8e+08 M⁻¹ | – |
| chimeric anti-dansyl IgG4(Leu[234], Pro[331]) (antibody) | 1.3e+08 M⁻¹ | – |
| exon-exchange chimeric anti-dansyl IgG 2232 (IgG2 with a gamma 3 CH2 domain) (antibody) | 2.8e+08 M⁻¹ | – |
| exon-exchange chimeric anti-dansyl IgG 3332 (IgG3 bearing the CH3 domain of IgG2) (antibody) | 1.8e+09 M⁻¹ | – |
